Experimental findings from PMC4855144, “Novel Coronin7 interactions with Cdc42 and N-WASP regulate actin organization and Golgi morphology” (Scientific Reports, 2016) are described below.

What all share (assay): pull-down; Glutathione-Sepharose beads coated with GST alone or GST-GTPase fusions pre-loaded with GDP (DN) or GTPγS (CA), incubated with lysates of HEK293T cells expressing GFP-CRN7 WT or CRIB mutants; blot with GFP mAb K3-184-2 or anti-N-WASP; ImageJ quantification, input set at 100%
Holding throughout (conditions): one partner purified

For assay [1], the target named is GST-Rac1 constitutively active (CA/Q61L), preloaded with GTPγS (UniProt P63000 1-192, Q61L).
Assay [2] deals with GST-Rac1 dominant negative (DN/T17N), preloaded with GDP (UniProt P63000 1-192, T17N).
The target of assay [3] is T1, GST-Cdc42 dominant negative (DN/T17N), preloaded with GDP (UniProt P60953 1-191, T17N).
T1 construct: Preloaded with GDP; also called Cdc42DN; Cdc42 DN; source: E. coli BL21, purified (Glutathione Sepharose), held on glutathione-Sepharose beads
T1 sequence (P60953 whole entry T17N): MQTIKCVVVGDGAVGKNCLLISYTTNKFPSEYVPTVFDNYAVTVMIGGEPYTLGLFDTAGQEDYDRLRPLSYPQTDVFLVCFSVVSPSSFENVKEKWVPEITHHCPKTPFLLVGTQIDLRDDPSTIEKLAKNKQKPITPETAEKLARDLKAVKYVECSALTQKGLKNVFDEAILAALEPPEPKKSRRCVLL

B1: GFP-CRN7 WT (human Coronin7, full length, GFP on its N-terminus) (natural protein, UniProt P57737 1-925, looked up)
chain: MNRFRVSKFRHTEARPPRRESWISDIRAGTAPSCRNHIKSSCSLIAFNSDRPGVLGIVPLQGQGEDKRRVAHLGCHSDLVTDLDFSPFDDFLLATGSADRTVKLWRLPGPGQALPSAPGVVLGPEDLPVEVLQFHPTSDGILVSAAGTTVKVWDAAKQQPLTELAAHGDLVQSAVWSRDGALVGTACKDKQLRIFDPRTKPRASQSTQAHENSRDSRLAWMGTWEHLVSTGFNQMREREVKLWDTRFFSSALASLTLDTSLGCLVPLLDPDSGLLVLAGKGERQLYCYEVVPQQPALSPVTQCVLESVLRGAALVPRQALAVMSCEVLRVLQLSDTAIVPIGYHVPRKAVEFHEDLFPDTAGCVPATDPHSWWAGDNQQVQKVSLNPACRPHPSFTSCLVPPAEPLPDTAQPAVMETPVGDADASEGFSSPPSSLTSPSTPSSLGPSLSSTSGIGTSPSLRSLQSLLGPSSKFRHAQGTVLHRDSHITNLKGLNLTTPGESDGFCANKLRVAVPLLSSGGQVAVLELRKPGRLPDTALPTLQNGAAVTDLAWDPFDPHRLAVAGEDARIRLWRVPAEGLEEVLTTPETVLTGHTEKICSLRFHPLAANVLASSSYDLTVRIWDLQAGADRLKLQGHQDQIFSLAWSPDGQQLATVCKDGRVRVYRPRSGPEPLQEGPGPKGGRGARIVWVCDGRCLLVSGFDSQSERQLLLYEAEALAGGPLAVLGLDVAPSTLLPSYDPDTGLVLLTGKGDTRVFLYELLPESPFFLECNSFTSPDPHKGLVLLPKTECDVREVELMRCLRLRQSSLEPVAFRLPRVRKEFFQDDVFPDTAVIWEPVLSAEAWLQGANGQPWLLSLQPPDMSPVSQAPREAPARRAPSSAQYLEEKSDQQKKEELLNAMVAKLGNREDPLPQDSFEGVDEDEWD
notes: Coronin7 (CRN7), human, wild type, full length; CRIB motifs at 116-130 (NT-CRIB) and 582-599 (CT-CRIB); also called full-length CRN7; source: HEK293T, transfected (PEI), in lysate; not shown: GFP, N-terminal, kept
Regarding B1, the figures for the “percent of input bound” value in assay [1], in assay [2] and in assay [3] were 7 % of input, ~17 % of input and 65 % of input, respectively.
